The series has as its system T1, His-ChvI(D52E) D52E (Agrobacterium tumefaciens C58), ORF:0a874367.
T1 sequence: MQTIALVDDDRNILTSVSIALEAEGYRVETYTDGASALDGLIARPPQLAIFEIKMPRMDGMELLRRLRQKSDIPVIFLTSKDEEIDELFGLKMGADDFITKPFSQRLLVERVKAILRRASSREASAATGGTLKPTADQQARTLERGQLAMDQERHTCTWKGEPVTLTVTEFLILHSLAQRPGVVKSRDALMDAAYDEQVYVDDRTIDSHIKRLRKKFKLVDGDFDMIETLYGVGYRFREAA
The series is described as follows: EMSA. For orientation: In EMSA bound probe runs differently from free probe, usually more slowly.

“TCCGCATCCATGGGAATAGCAGTCTTTCCCCACCTTGCCTCCACGCTGGAGCAGCTTTTCGACAGGGCAGACTATGCCCTCTACCACGCCAAGAAAACCCGGCGTGGCGATGCCGTTCTGTTCGATGCGGAACACGAAAAGCAGATCAATATCGAAGCCCGCATTGAGCATCTGCTCAAGCAGAGCGATCTGAAAAACGAACTTTCGGTGATGTTTCAGCCGATCGTGGATATACGCGACGGAAGGATC (double strand) [atu4353 coding region control fragment]”: the binding entry is recorded as “no binding”. With “TCGAGGAGTAGTCTATCCCCAGAAAATAGTAATGGATTTTTTGTAGTTACTTCCCTTACGTGAGGCTATTAATCAGACAGACTTATTCAAAATGTGTCTAAATTGTGGCGTCTACTCCCTAATCTAATCTGATAAAAAATAAACTTCGGGGTGGACAACCCGGTTTCATCATCATAGTTATTCCACGTCACGTTGTGGAATGAACCCGGGCAGGAGGCTCATTGCATGTCGGTACCCC (double strand) [imp-hcp intergenic region (T6SS regulatory region), 230 bp]” the entry was “binds”.
